From patent publication US20150152159A1

Target: human growth hormone receptor on IM-9 cells (human) (UniProt P10912)
Experiment: not given

UniProt P10912, sequence (P10912 19-638): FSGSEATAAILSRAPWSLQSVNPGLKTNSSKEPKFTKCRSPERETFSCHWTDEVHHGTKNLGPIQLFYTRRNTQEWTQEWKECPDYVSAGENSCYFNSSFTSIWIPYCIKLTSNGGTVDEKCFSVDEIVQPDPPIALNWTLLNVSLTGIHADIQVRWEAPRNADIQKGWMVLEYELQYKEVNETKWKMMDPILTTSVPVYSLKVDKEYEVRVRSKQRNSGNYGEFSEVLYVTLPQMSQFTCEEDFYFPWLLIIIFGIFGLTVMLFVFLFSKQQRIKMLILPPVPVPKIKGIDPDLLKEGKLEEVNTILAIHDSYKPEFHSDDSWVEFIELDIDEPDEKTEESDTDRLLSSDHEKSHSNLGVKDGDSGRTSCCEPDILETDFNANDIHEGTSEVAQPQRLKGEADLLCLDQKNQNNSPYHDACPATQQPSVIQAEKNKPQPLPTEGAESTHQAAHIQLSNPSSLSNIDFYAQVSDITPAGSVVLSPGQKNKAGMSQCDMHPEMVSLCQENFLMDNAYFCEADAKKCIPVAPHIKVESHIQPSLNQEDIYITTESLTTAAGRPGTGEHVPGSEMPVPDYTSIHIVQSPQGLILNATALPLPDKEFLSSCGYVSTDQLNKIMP

| Substance | EC50, STAT5 phosphorylation in IM-9 cells (MFI of PE, intracellular phospho-STAT5 staining) |
| --- | --- |
| (His)F92pAF-20K (from UniProt P09466) (ligand) | 4.6 nM |
| hGH F92pAF (from UniProt P01241 27-217) (ligand) | 0.9 nM |

Now from value to substance:

| EC50, STAT5 phosphorylation in IM-9 cells (MFI of PE, intracellular phospho-STAT5 staining) | Substance |
| --- | --- |
| 4.1 nM | (His)F92-pAF-30K (ligand) |
| 1.5 nM | (His)F92pAF-5K (from UniProt P09466) (ligand) |

Target: human growth hormone receptor on IM-9 cells (human) (UniProt P10912)
Experiment: not given
Remark: another data set of the same source

| EC50, STAT5 phosphorylation in IM-9 cells (MFI of PE, intracellular phospho-STAT5 staining) | Substance |
| --- | --- |
| 1.1 nM | hGH F92pAF (from UniProt P01241 27-217) (ligand) |

Target: human growth hormone receptor on IM-9 cells (human) (UniProt P10912)
Experiment: cell-based or functional assay

| Substance | EC50 (nM), STAT5 phosphorylation in IM-9 cells |
| --- | --- |
| His-tagged hGH Y143pAF (from UniProt P01241 27-217) (ligand) | 0.8 nM |
| hGH A155pAF (from UniProt P01241 27-217) (ligand) | 1.3 nM |
| hGH E88pAF (from UniProt P01241 27-217) (ligand) | 0.9 nM |
| hGH F92pAF (from UniProt P01241 27-217) (ligand) | 0.8 nM |
| hGH G131pAF (from UniProt P01241 27-217) (ligand) | 0.8 nM |
| hGH K140pAF (from UniProt P01241 27-217) (ligand) | 2.7 nM |
| hGH P133pAF (from UniProt P01241 27-217) (ligand) | 1 nM |
| hGH T135pAF (from UniProt P01241 27-217) (ligand) | 0.9 nM |

Other lines, results leading:

| EC50 (nM), STAT5 phosphorylation in IM-9 cells | Substance |
| --- | --- |
| 3.3 nM | hGH F139pAF (from UniProt P01241 27-217) (ligand) |
| 1.4 nM | hGH G136pAF (from UniProt P01241 27-217) (ligand) |
| 8.5 nM | hGH N99pAF (from UniProt P01241 27-217) (ligand) |
| 2 nM | hGH Q91pAF (from UniProt P01241 27-217) (ligand) |
| 0.9 nM | hGH R134pAF (from UniProt P01241 27-217) (ligand) |
| 16.7 nM | hGH S95pAF (from UniProt P01241 27-217) (ligand) |
| 130000 nM | hGH Y103pAF (from UniProt P01241 27-217) (ligand) |
| 1 nM | hGH Y111pAF (from UniProt P01241 27-217) (ligand) |
| > 200000 nM | rat GH WT (from UniProt P01244 27-216) (ligand) |
